Blank lines part the entries; values can stand above or below the binder they belong to.
B1: Ino80 subunit of the INO80 complex (natural protein, UniProt P53115 1-1489, looked up)
chain: MSLAVLLNKEDKDISDFSKTTAGKSAKKNSRERVADVAPTRVLDKKQAYLSQLNSEFNRIKRRDSIEQLYQDWKFINLQEFELISEWNQQSKDWQFDNTNDSQDLHFKKLYRDMSMINKEWAEYQSFKNANLSDIINEKDADEDEEDDEDELEDGEEDMEEDEASTGRHTNGKSMRGNGIQKSRKKDAAAAAAIGKAIKDDQTHADTVVTVNGDENEDGNNGEDEDNDNDNENNNDNDNDNENENDNDSDNDDEEENGEEDEEEEEIEDLDEEDFAAFEEQDDNDDEDFNPDVEKRRKRSSSSSSSTKLSMNSLSLITSKKINKNITINSDRPKIVRELIKMCNKNKHQKIKKRRFTNCIVTDYNPIDSKLNIKITLKQYHVKRLKKLINDAKREREREEALKNNVGLDGNDLDNDEDGSESHKRRKLNNNTANGADDANKRKFNTRHGLPTYGMKMNAKEARAIQRHYDNTYTTIWKDMARKDSTKMSRLVQQIQSIRSTNFRKTSSLCAREAKKWQSKNFKQIKDFQTRARRGIREMSNFWKKNEREERDLKKKIEKEAMEQAKKEEEEKESKRQAKKLNFLLTQTELYSHFIGRKIKTNELEGNNVSSNDSESQKNIDISALAPNKNDFHAIDFDNENDEQLRLRAAENASNALAETRAKAKQFDDHANAHEEEEEEDELNFQNPTSLGEITIEQPKILACTLKEYQLKGLNWLANLYDQGINGILADEMGLGKTVQSISVLAHLAENHNIWGPFLVVTPASTLHNWVNEISKFLPQFKILPYWGNANDRKVLRKFWDRKNLRYNKNAPFHVMVTSYQMVVTDANYLQKMKWQYMILDEAQAIKSSQSSRWKNLLSFHCRNRLLLTGTPIQNSMQELWALLHFIMPSLFDSHDEFNEWFSKDIESHAEANTKLNQQQLRRLHMILKPFMLRRVKKNVQSELGDKIEIDVLCDLTQRQAKLYQVLKSQISTNYDAIENAATNDSTSNSASNSGSDQNLINAVMQFRKVCNHPDLFERADVDSPFSFTTFGKTTSMLTASVANNNSSVISNSNMNLSSMSSNNISNGKFTDLIYSSRNPIKYSLPRLIYEDLILPNYNNDVDIANKLKNVKFNIFNPSTNYELCLFLSKLTGEPSLNEFFRVSTTPLLKRVIERTNGPKNTDSLSFKTITQELLEVTRNAPSEGVMASLLNVEKHAYEREYLNCIQRGYHPNVSAPPVTIEVLGSSHVTNSINNELFDPLISQALSDIPAITQYNMHVKKGIPVEDFPKTGLFPEPLNKNFSSNISMPSMDRFITESAKLRKLDELLVKLKSEGHRVLIYFQMTKMMDLMEEYLTYRQYNHIRLDGSSKLEDRRDLVHDWQTNPEIFVFLLSTRAGGLGINLTAADTVIFYDSDWNPTIDSQAMDRAHRLGQTRQVTVYRLLVRGTIEERMRDRAKQKEQVQQVVMEGKTQEKNIKTIEVGENDSEVTREGSKSISQDGIKEAASALA
notes: Ino80, motor ATPase and scaffold subunit of the INO80 complex, budding yeast; endogenous protein with chromosomally inserted tag; Stood in the cross-linking assay as part of the whole purified complex; also called Ino80 scaffold; motor ATPase Ino80; source: endogenously expressed in S. cerevisiae (S288c background; wild-type strain and yPB5), purified within the INO80 or INO80-AA complex …

Key:
Test in all cases: cross-linking; DSBU cross-linking with mass spectrometry of the purified wild-type INO80 complex; 58 uM DSBU, 20 min, 30 C, 1200 rpm; 25 mM HEPES-NaOH pH 7.2, 300 mM NaCl, 5% glycerol, 1 mM DTT, 4 mM MgCl2; repeated with an independent batch
Details in all cases: both partners purified
[1] = target: T1, A-module of the INO80 complex (Arp4/Arp8/Act1(actin)/Taf14/Ies4) (S. cerevisiae (endogenous, S288c …, UniProt P80428 1-489; Q12386 1-881; P60010 1-375; P35189 1-244; Q08561 1-116)
T1 construct: Arp4, A-module subunit of INO80, budding yeast; endogenous protein; Arp8, A-module subunit of INO80, budding yeast; endogenous wild-type protein; Act1 (actin), A-module subunit of INO80, budding yeast; Taf14, A-module subunit of INO80, budding yeast; Ies4, A-module subunit of INO80, budding yeast; Stood in the cross-linking assay as part of the whole purified wild-type complex; also called ARP8 …

[2] = target: B1
[3] = target: T2, Ies1 subunit of the INO80 complex (S. cerevisiae (endogenous, S288c …, UniProt P43579 1-692))
T2 construct: Ies1, N-module subunit of INO80, budding yeast; endogenous protein; Stood in the cross-linking assay as part of the whole purified complex; source: endogenously expressed in S. cerevisiae (S288c background; wild-type strain and yPB5), purified within the INO80 or INO80-AA complex (anti-FLAG M2 resin, Mono Q)
T2 sequence (looked up): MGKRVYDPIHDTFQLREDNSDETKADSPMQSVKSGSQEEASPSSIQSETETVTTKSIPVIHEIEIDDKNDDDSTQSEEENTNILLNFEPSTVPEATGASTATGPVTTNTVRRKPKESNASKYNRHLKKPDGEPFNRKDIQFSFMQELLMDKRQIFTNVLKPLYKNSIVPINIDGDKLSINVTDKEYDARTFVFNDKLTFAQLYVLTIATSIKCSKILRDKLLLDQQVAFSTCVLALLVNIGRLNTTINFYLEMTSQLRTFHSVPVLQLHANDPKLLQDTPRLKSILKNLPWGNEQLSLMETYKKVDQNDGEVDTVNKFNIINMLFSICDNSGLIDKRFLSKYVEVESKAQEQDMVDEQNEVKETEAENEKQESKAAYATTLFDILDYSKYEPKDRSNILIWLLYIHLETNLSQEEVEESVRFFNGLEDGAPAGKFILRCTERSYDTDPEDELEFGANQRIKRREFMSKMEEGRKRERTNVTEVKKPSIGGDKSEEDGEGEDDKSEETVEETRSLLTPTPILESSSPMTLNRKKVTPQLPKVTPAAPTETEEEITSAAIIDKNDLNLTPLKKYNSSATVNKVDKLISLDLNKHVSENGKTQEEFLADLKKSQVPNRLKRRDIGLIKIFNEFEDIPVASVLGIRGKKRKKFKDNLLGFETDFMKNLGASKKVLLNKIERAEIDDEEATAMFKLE

Binder: B1
- binding result [1]: binds

- binding result [2]: binds
B2: N-module of the INO80 complex (Nhp10/Ies1/Ies3/Ies5) (complex)
chain 1: MSVEEKKRRLEELKDQNVVLGLAIQRSRLSVKRLKLEYGVLLERLESRIELDPELNCEDPLPTLASFKQELLTKPFRKSKTKRHKVKERDPNMPKRPTNAYLLYCEMNKERIRQNGSLDVTRDLAEGWKNLNEQDRKPYYKLYSEDRERYQMEMEIYNKKISNIDADDDKEENEQKIKNNEEGSSTKVADSKGGEDGSLVSSN
chain 2: MGKRVYDPIHDTFQLREDNSDETKADSPMQSVKSGSQEEASPSSIQSETETVTTKSIPVIHEIEIDDKNDDDSTQSEEENTNILLNFEPSTVPEATGASTATGPVTTNTVRRKPKESNASKYNRHLKKPDGEPFNRKDIQFSFMQELLMDKRQIFTNVLKPLYKNSIVPINIDGDKLSINVTDKEYDARTFVFNDKLTFAQLYVLTIATSIKCSKILRDKLLLDQQVAFSTCVLALLVNIGRLNTTINFYLEMTSQLRTFHSVPVLQLHANDPKLLQDTPRLKSILKNLPWGNEQLSLMETYKKVDQNDGEVDTVNKFNIINMLFSICDNSGLIDKRFLSKYVEVESKAQEQDMVDEQNEVKETEAENEKQESKAAYATTLFDILDYSKYEPKDRSNILIWLLYIHLETNLSQEEVEESVRFFNGLEDGAPAGKFILRCTERSYDTDPEDELEFGANQRIKRREFMSKMEEGRKRERTNVTEVKKPSIGGDKSEEDGEGEDDKSEETVEETRSLLTPTPILESSSPMTLNRKKVTPQLPKVTPAAPTETEEEITSAAIIDKNDLNLTPLKKYNSSATVNKVDKLISLDLNKHVSENGKTQEEFLADLKKSQVPNRLKRRDIGLIKIFNEFEDIPVASVLGIRGKKRKKFKDNLLGFETDFMKNLGASKKVLLNKIERAEIDDEEATAMFKLE
chain 3: MKFEDLLATNKQVQFAHAATQHYKSVKTPDFLEKDPHHKKFHNADGLNQQGSSTPSTATDANAASTASTHTNTTTFKRHIVAVDDISKMNYEMIKNSPGNVITNANQDEIDISTLKTRLYKDNLYAMNDNFLQAVNDQIVTLNAAEQDQETEDPDLSDDEKIDILTKIQENLLEEYQKLSQKERKWFILKELLLDANVELDLFSNRGRKASHPIAFGAVAIPTNVNANSLAFNRTKRRKINKNGLLENIL
chain 4: MPSKDPESVIDKEIRKISARNDELIKQDGTLKREYTTLLRKVSSVITVLNSIDDADTGSAETELPRLISQATVEKVPELKWYNDQISLITEKLEDDEDIEVPEELMDAYTLYKETPLLYNDTHTP
notes: Nhp10, N-module subunit of INO80, budding yeast; endogenous protein; Ies1, N-module subunit of INO80, budding yeast; Ies3, N-module subunit of INO80, budding yeast; Ies5, N-module subunit of INO80, budding yeast; Stood in the cross-linking assay as part of the whole purified complex; also called NHP10 module; N-module subunits; source: endogenously expressed in S. cerevisiae (S288c background; …)

- binding result [3]: binds
B3: the rest of the N-module of the INO80 complex (Nhp10/Ies3/Ies5) (complex)
chain 1: MSVEEKKRRLEELKDQNVVLGLAIQRSRLSVKRLKLEYGVLLERLESRIELDPELNCEDPLPTLASFKQELLTKPFRKSKTKRHKVKERDPNMPKRPTNAYLLYCEMNKERIRQNGSLDVTRDLAEGWKNLNEQDRKPYYKLYSEDRERYQMEMEIYNKKISNIDADDDKEENEQKIKNNEEGSSTKVADSKGGEDGSLVSSN
chain 2: MKFEDLLATNKQVQFAHAATQHYKSVKTPDFLEKDPHHKKFHNADGLNQQGSSTPSTATDANAASTASTHTNTTTFKRHIVAVDDISKMNYEMIKNSPGNVITNANQDEIDISTLKTRLYKDNLYAMNDNFLQAVNDQIVTLNAAEQDQETEDPDLSDDEKIDILTKIQENLLEEYQKLSQKERKWFILKELLLDANVELDLFSNRGRKASHPIAFGAVAIPTNVNANSLAFNRTKRRKINKNGLLENIL
chain 3: MPSKDPESVIDKEIRKISARNDELIKQDGTLKREYTTLLRKVSSVITVLNSIDDADTGSAETELPRLISQATVEKVPELKWYNDQISLITEKLEDDEDIEVPEELMDAYTLYKETPLLYNDTHTP
notes: Nhp10, N-module subunit of INO80, budding yeast; endogenous protein; Ies3, N-module subunit of INO80, budding yeast; Ies5, N-module subunit of INO80, budding yeast; source: endogenously expressed in S. cerevisiae (S288c background; wild-type strain and yPB5), purified within the INO80 or INO80-AA complex (anti-FLAG M2 resin, Mono Q); copies: + +

From publication PMC13035910, “Dbf4-dependent kinase finetunes Ino80 function at chromosome replication origins” (Nature Communications, 2026)
